From US20180364256A1 (WAYNE STATE UNIVERSITY, published 2018)
Numbering of substitutions follows the chain as printed.

T1: N-terminal fragment of human cardiac troponin T (HcTnT-N69) (human)
T1 construct: Recombinantly produced and purified; immobilised on microtiter plates in the ELISA; also the immunogen; also called N69 peptide; isolated (free, cleaved) HcTnT-N69 peptide
T1 peptide: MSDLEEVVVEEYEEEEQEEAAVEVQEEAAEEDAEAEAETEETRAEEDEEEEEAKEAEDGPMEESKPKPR

B1: mouse monoclonal antibody 2H3 (antibody, IgM, V domains shown)
VH: GGGLVQPKGSLKLSCAASGFTFNTYAMNWVRQAPGKGLEWVARIRSKSNNYATYYADSVKDRFTISRDDSQSMLYLQMNNLKTEDTAMYYCVRHDGVAWFAYWGQGTLVTVSA
VL: LSLPVSLGDQASISCRSSQSIVHSNGNTYLEWYLQKPGQSPKLLIYKVSNRFSGVPDRFSGSGSGTDFTLKISRVKAEDLGVYYCFQGSHVPPTFGAGTKLELKR
notes: Mouse hybridoma mAb, IgM kappa (VH3/VL5); also called mAb 2H3; Class V mAb
B2: mouse monoclonal antibody 2D9 (antibody, IgM, V domains shown)
VH: B1 VH
VL: B1 VL with R16K, E31K
notes: Mouse hybridoma mAb, IgM kappa (VH3/VL7); also called mAb 2D9; Class VII mAb
B3: mouse monoclonal antibody 4F5 (antibody, IgM, V domains shown)
VH: B1 VH
VL: B1 VL with R16K
notes: Mouse hybridoma mAb, IgM kappa (VH3/VL6); also called mAb 4F5; Class VI mAb
B4: mouse monoclonal antibody 1E11 (antibody, IgG3, V domains shown)
VH: GAELAKPGASVKMSCKASGYTFTTYWMHWVKQRPGQGLEWIGFINPSTGYTEYNQKFKDKATLTADKSSSTAYMQLSSLTSGDSAVYYCARKSFAYWGHGTLVTVSA
VL: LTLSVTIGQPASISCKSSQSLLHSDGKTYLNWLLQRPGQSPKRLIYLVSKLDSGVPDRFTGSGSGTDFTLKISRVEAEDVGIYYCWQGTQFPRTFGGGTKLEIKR
notes: Mouse hybridoma mAb, IgG3 kappa (VH2/VL3); also called mAb 1E11; Class III mAb
B5: mouse monoclonal antibody 1D6 (antibody, V domains shown)
VH: GPELVKPGASVKISCKTSGYTFTENTIHWVKQSHGKSLEWVGGINPNNGGTNYNQKFKGRAALTVDKSSSTAYMELRSLTSEDSAVYYCARSWDWFAYWGQGTLVTVSA
VL: LSLPVSLGDQASISCRSSQSLVHSNGNTYLHWYLQKPGQSPKLLVYKVSNRFSGVPDRFSGSGSGTDFTLKIIRVEAEDLGVYFCSQSTRIPFTFGSGTKLEMKR
notes: Mouse hybridoma mAb, IgG1 kappa (VH1/VL1); they appear to lack the first N-terminal residues; also called mAb 1D6; Class I mAb
B6: mouse monoclonal antibody 2A8 (antibody, V domains shown)
VH: B5 VH
VL: B5 VL
notes: Mouse hybridoma mAb, IgG1 kappa (VH1/VL1), separately isolated hybridoma with the same variable regions as 1D6; also called Class I mAb; anti-N69 mAb
B7: mouse monoclonal antibody 2C1 (antibody, V domains shown)
VH: B5 VH
VL: B5 VL
notes: as for B6
B8: mouse monoclonal antibody 2D11 (antibody, IgG1, V domains shown)
VH: B5 VH
VL: B5 VL with E76K
notes: Mouse hybridoma mAb, IgG1 kappa (VH1/VL2); also called mAb 2D11; Class II mAb
B9: mouse monoclonal antibody 3H5 (antibody, IgM, V domains shown)
VH: B1 VH
VL: B1 VL with K76E
notes: Mouse hybridoma mAb, IgM kappa (VH3/VL4); also called mAb 3H5; Class IV mAb

Biological target: T1, N-terminal fragment of human cardiac …
Test: assay not named in the sentence (ELISA titration per the Examples)
Method: (§1) Purified HcTnT-N69 (also called N69) having the amino acid sequences shown in SEQ ID NO:1 or intact human cTnT antigen was immobilized on microtiter plates. After washing and blocking the plastic surface with 1% BSA and 0.05% Tween-20, the immobilized antigen was incubated with serial dilutions of the anti-N69 mAbs. Following washes to remove the unbound antibody, the plates were further incubated with HRP-conjugated second antibody followed by washes and H₂O₂-ABTS substrate reaction. A₄₁₅ₙₘ curve for each assay well was recorded by an automated microplate reader.

Binding result, binds:
B1, B2, B3

Biological target: T1, N-terminal fragment of human cardiac …
Test: indirect ELISA titration, antigen immobilised on plate
Method: as §1

Binding result, binds:
B4, B5, B6, B7, B8, B9
